From patent US20250263504A1 (Takeda / Millennium, published 2025) come the findings set out here.

The target in one test is T1, plasma kallikrein (pKal) (UniProt P03952 20-390; P03952 391-638, limits assumed).
T1 construct: the description speaks of human pKal; also called active pKal
Description: enzyme inhibition, corrected Ki,app.

Another test addresses T2, Factor XIIa (FXIIa) (UniProt P00748 20-372; P00748 373-615, limits assumed).
T2 construct: the description speaks of human FXIIa; also called active Factor XII
T2 sequence (looked up) 1: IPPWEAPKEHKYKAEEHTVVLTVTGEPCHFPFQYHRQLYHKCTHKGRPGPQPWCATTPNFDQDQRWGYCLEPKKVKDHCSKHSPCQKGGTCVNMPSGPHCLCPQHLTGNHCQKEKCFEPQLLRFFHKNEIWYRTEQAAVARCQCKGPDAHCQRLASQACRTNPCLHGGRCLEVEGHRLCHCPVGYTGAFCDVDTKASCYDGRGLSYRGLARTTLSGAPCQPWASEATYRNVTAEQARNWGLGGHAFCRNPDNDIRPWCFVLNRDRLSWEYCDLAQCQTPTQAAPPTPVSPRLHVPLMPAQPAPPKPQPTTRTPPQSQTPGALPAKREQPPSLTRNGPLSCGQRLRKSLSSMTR
T2 sequence (looked up) 2: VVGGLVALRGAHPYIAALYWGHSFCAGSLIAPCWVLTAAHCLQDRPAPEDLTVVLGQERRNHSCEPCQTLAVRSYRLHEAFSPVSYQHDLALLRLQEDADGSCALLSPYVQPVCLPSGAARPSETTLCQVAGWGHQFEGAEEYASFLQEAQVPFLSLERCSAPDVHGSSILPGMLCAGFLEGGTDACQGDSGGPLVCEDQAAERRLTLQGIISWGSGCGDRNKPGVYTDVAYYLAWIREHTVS
Description: enzyme inhibition, corrected Ki,app.

T1 sequence (P03952 20-390 limits assumed, form in doubt, chain 1 of 2): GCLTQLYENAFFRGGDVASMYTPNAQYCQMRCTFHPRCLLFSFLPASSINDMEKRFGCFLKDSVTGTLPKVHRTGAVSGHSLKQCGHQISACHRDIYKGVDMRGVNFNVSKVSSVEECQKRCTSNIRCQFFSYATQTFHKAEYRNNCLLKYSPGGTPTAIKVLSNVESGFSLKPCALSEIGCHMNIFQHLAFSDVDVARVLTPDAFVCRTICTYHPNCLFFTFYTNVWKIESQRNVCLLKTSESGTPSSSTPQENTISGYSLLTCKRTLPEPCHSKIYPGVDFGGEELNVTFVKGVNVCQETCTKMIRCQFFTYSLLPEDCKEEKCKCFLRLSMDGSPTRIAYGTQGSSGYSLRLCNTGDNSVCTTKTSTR
T1 sequence (P03952 391-638 limits assumed, form in doubt, chain 2 of 2): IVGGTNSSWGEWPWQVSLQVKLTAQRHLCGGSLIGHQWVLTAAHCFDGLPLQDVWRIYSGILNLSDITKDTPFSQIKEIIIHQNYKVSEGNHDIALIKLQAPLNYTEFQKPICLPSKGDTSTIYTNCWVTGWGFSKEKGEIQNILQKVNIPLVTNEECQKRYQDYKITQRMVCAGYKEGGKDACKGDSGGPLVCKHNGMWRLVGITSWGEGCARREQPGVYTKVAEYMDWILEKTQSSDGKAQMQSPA

B1: 620I-X0136-D05 (bispecific antibody)
heavy: not shown
light: DIQMTQSPSTLSASVGDRVTITCRASQSISSWLAWYQQKPGKAPKLLIYKASTLESGVPSRFSGSGSGTEFTLTISSLQPDDFATYYCQQYNTYWTFGQGTKVEIKRTVAAPSVFIFPPSDEQLKSGTASVVCLLNNFYPREAKVQWKVDNALQSGNSQESVTEQDSKDSTYSLSSTLTLSKADYEKHKVYACEVTHQGLSSPVTKSFNRGEC
notes: also called 620I-X136-D05
As for B1, the Ki with plasma kallikrein (pKal) came to 0.055 nM; in the test with Factor XIIa (FXIIa) it was 0.013 nM.

B2: 620I-X0139-G02 (bispecific antibody)
heavy: not shown
light: DIQMTQSPSTLSASVGDRVTITCRASQSISSWLAWYQQKPGKAPKLLIYKASTLESGVPSRFSGSGSGTEFTLTISSLQPDDFATYYCQQYNTYWTFGQGTKVEIKRTVAAPSVFIFPPSDEQLKSGTASVVCLLNNFYPREAKVQWKVDNALQSGNSQESVTEQDSKDSTYSLSSTLTLSKADYEKHKVYACEVTHQGLSSPVTKSFNRGEC
notes: also called 620I-X139-G02
On to B2, for which the Ki in the test with plasma kallikrein (pKal) stood at 0.171 nM; with Factor XIIa (FXIIa), 0.161 nM.

B3: 620I-X0136-G10 (bispecific antibody)
heavy: not shown
light: DIQMTQSPSTLSASVGDRVTITCRASQSISSWLAWYQQKPGKAPKLLIYKASTLESGVPSRFSGSGSGTEFTLTISSLQPDDFATYYCQQYNTYWTFGQGTKVEIKRTVAAPSVFIFPPSDEQLKSGTASVVCLLNNFYPREAKVQWKVDNALQSGNSQESVTEQDSKDSTYSLSSTLTLSKADYEKHKVYACEVTHQGLSSPVTKSFNRGEC
notes: also called 620I-X136-G10
Turning to B3, the Ki with plasma kallikrein (pKal) was found to be 0.171 nM; with Factor XIIa (FXIIa), 0.028 nM.

B4: 620I-X0137-A10 (bispecific antibody)
heavy: not shown
light: DIQMTQSPSTLSASVGDRVTITCRASQSISSWLAWYQQKPGKAPKLLIYKASTLESGVPSRFSGSGSGTEFTLTISSLQPDDFATYYCQQYNTYWTFGQGTKVEIKRTVAAPSVFIFPPSDEQLKSGTASVVCLLNNFYPREAKVQWKVDNALQSGNSQESVTEQDSKDSTYSLSSTLTLSKADYEKHKVYACEVTHQGLSSPVTKSFNRGEC
notes: also called 620I-X137-A10
In the case of B4, the Ki with plasma kallikrein (pKal) was determined as 0.195 nM; with Factor XIIa (FXIIa), 0.205 nM.

B5: 620I-X0137-B08 (bispecific antibody)
heavy: not shown
light: DIQMTQSPSTLSASVGDRVTITCRASQSISSWLAWYQQKPGKAPKLLIYKASTLESGVPSRFSGSGSGTEFTLTISSLQPDDFATYYCQQYNTYWTFGQGTKVEIKRTVAAPSVFIFPPSDEQLKSGTASVVCLLNNFYPREAKVQWKVDNALQSGNSQESVTEQDSKDSTYSLSSTLTLSKADYEKHKVYACEVTHQGLSSPVTKSFNRGEC
notes: also called 620I-X137-B08
As for B5, the Ki in the test with plasma kallikrein (pKal) was found to be 0.312 nM; with Factor XIIa (FXIIa), 0.409 nM.

B6: 620I-X0136-E07 (bispecific antibody)
heavy: not shown
light: DIQMTQSPSTLSASVGDRVTITCRASQSISSWLAWYQQKPGKAPKLLIYKASTLESGVPSRFSGSGSGTEFTLTISSLQPDDFATYYCQQYNTYWTFGQGTKVEIKRTVAAPSVFIFPPSDEQLKSGTASVVCLLNNFYPREAKVQWKVDNALQSGNSQESVTEQDSKDSTYSLSSTLTLSKADYEKHKVYACEVTHQGLSSPVTKSFNRGEC
notes: also called 620I-X136-E07
As to B6, the Ki with plasma kallikrein (pKal) was found to be 0.19 nM; in the test with Factor XIIa (FXIIa) it was 0.312 nM.

B7: 620I-X0142-E09 (bispecific antibody)
heavy: not shown
light: DIQMTQSPSTLSASVGDRVTITCRASQSISSWLAWYQQKPGKAPKLLIYKASTLESGVPSRFSGSGSGTEFTLTISSLQPDDFATYYCQQYNTYWTFGQGTKVEIKRTVAAPSVFIFPPSDEQLKSGTASVVCLLNNFYPREAKVQWKVDNALQSGNSQESVTEQDSKDSTYSLSSTLTLSKADYEKHKVYACEVTHQGLSSPVTKSFNRGEC
notes: also called 620I-X142-E09
B7: the Ki came to 0.174 nM in the test with plasma kallikrein (pKal) and 0.163 nM in the test with Factor XIIa (FXIIa).

B8: 620I-X0136-G04 (bispecific antibody)
heavy: not shown
light: DIQMTQSPSTLSASVGDRVTITCRASQSISSWLAWYQQKPGKAPKLLIYKASTLESGVPSRFSGSGSGTEFTLTISSLQPDDFATYYCQQYNTYWTFGQGTKVEIKRTVAAPSVFIFPPSDEQLKSGTASVVCLLNNFYPREAKVQWKVDNALQSGNSQESVTEQDSKDSTYSLSSTLTLSKADYEKHKVYACEVTHQGLSSPVTKSFNRGEC
notes: also called 620I-X136-G04
B8: the Ki with plasma kallikrein (pKal) amounted to 0.179 nM; in the test with Factor XIIa (FXIIa) it was 0.107 nM.

B9: 620I-X0142-A11 (bispecific antibody)
heavy: not shown
light: DIQMTQSPSTLSASVGDRVTITCRASQSISSWLAWYQQKPGKAPKLLIYKASTLESGVPSRFSGSGSGTEFTLTISSLQPDDFATYYCQQYNTYWTFGQGTKVEIKRTVAAPSVFIFPPSDEQLKSGTASVVCLLNNFYPREAKVQWKVDNALQSGNSQESVTEQDSKDSTYSLSSTLTLSKADYEKHKVYACEVTHQGLSSPVTKSFNRGEC
notes: also called 620I-X142-A11
Regarding B9, the Ki came to 0.158 nM with plasma kallikrein (pKal) and 0.195 nM in the test with Factor XIIa (FXIIa).

B10: 620I-X0142-A10 (bispecific antibody)
heavy: not shown
light: DIQMTQSPSTLSASVGDRVTITCRASQSISSWLAWYQQKPGKAPKLLIYKASTLESGVPSRFSGSGSGTEFTLTISSLQPDDFATYYCQQYNTYWTFGQGTKVEIKRTVAAPSVFIFPPSDEQLKSGTASVVCLLNNFYPREAKVQWKVDNALQSGNSQESVTEQDSKDSTYSLSSTLTLSKADYEKHKVYACEVTHQGLSSPVTKSFNRGEC
notes: also called 620I-X142-A10
B10: the Ki was 0.175 nM with plasma kallikrein (pKal) and 0.389 nM with Factor XIIa (FXIIa).

B11: 620I-X0136-D06 (bispecific antibody)
heavy: not shown
light: DIQMTQSPSTLSASVGDRVTITCRASQSISSWLAWYQQKPGKAPKLLIYKASTLESGVPSRFSGSGSGTEFTLTISSLQPDDFATYYCQQYNTYWTFGQGTKVEIKRTVAAPSVFIFPPSDEQLKSGTASVVCLLNNFYPREAKVQWKVDNALQSGNSQESVTEQDSKDSTYSLSSTLTLSKADYEKHKVYACEVTHQGLSSPVTKSFNRGEC
notes: also called 620I-X136-D06
On to B11, for which the values for the Ki with plasma kallikrein (pKal) and in the test with Factor XIIa (FXIIa) were 0.176 nM and 0.084 nM, respectively.

B12: 620I-X0137-C08 (bispecific antibody)
heavy: not shown
light: DIQMTQSPSTLSASVGDRVTITCRASQSISSWLAWYQQKPGKAPKLLIYKASTLESGVPSRFSGSGSGTEFTLTISSLQPDDFATYYCQQYNTYWTFGQGTKVEIKRTVAAPSVFIFPPSDEQLKSGTASVVCLLNNFYPREAKVQWKVDNALQSGNSQESVTEQDSKDSTYSLSSTLTLSKADYEKHKVYACEVTHQGLSSPVTKSFNRGEC
notes: also called 620I-X137-C08
In the case of B12, the values for the Ki with plasma kallikrein (pKal) and with Factor XIIa (FXIIa) were 0.153 nM and 0.034 nM, respectively.

B13: 620I-X0136-G08 (bispecific antibody)
heavy: not shown
light: DIQMTQSPSTLSASVGDRVTITCRASQSISSWLAWYQQKPGKAPKLLIYKASTLESGVPSRFSGSGSGTEFTLTISSLQPDDFATYYCQQYNTYWTFGQGTKVEIKRTVAAPSVFIFPPSDEQLKSGTASVVCLLNNFYPREAKVQWKVDNALQSGNSQESVTEQDSKDSTYSLSSTLTLSKADYEKHKVYACEVTHQGLSSPVTKSFNRGEC
notes: also called 620I-X136-G08
With B13, the figures for the Ki with plasma kallikrein (pKal) and with Factor XIIa (FXIIa) were 0.176 nM and 0.028 nM, respectively.

B14: 620I-X0136-E05 (bispecific antibody)
heavy: not shown
light: DIQMTQSPSTLSASVGDRVTITCRASQSISSWLAWYQQKPGKAPKLLIYKASTLESGVPSRFSGSGSGTEFTLTISSLQPDDFATYYCQQYNTYWTFGQGTKVEIKRTVAAPSVFIFPPSDEQLKSGTASVVCLLNNFYPREAKVQWKVDNALQSGNSQESVTEQDSKDSTYSLSSTLTLSKADYEKHKVYACEVTHQGLSSPVTKSFNRGEC
notes: also called 620I-X136-E05
Take B14: the values for the Ki with plasma kallikrein (pKal) and in the test with Factor XIIa (FXIIa) were 0.158 nM and 0.172 nM, respectively.

B15: 620I-X0136-F07 (bispecific antibody)
heavy: not shown
light: DIQMTQSPSTLSASVGDRVTITCRASQSISSWLAWYQQKPGKAPKLLIYKASTLESGVPSRFSGSGSGTEFTLTISSLQPDDFATYYCQQYNTYWTFGQGTKVEIKRTVAAPSVFIFPPSDEQLKSGTASVVCLLNNFYPREAKVQWKVDNALQSGNSQESVTEQDSKDSTYSLSSTLTLSKADYEKHKVYACEVTHQGLSSPVTKSFNRGEC
notes: also called 620I-X136-F07
On to B15, for which the Ki was found to be 0.183 nM with plasma kallikrein (pKal) and 0.167 nM with Factor XIIa (FXIIa).

B16: 620I-X0136-G05 (bispecific antibody)
heavy: not shown
light: DIQMTQSPSTLSASVGDRVTITCRASQSISSWLAWYQQKPGKAPKLLIYKASTLESGVPSRFSGSGSGTEFTLTISSLQPDDFATYYCQQYNTYWTFGQGTKVEIKRTVAAPSVFIFPPSDEQLKSGTASVVCLLNNFYPREAKVQWKVDNALQSGNSQESVTEQDSKDSTYSLSSTLTLSKADYEKHKVYACEVTHQGLSSPVTKSFNRGEC
notes: also called 620I-X136-G05
As to B16, the Ki amounted to 0.179 nM with plasma kallikrein (pKal) and 0.1 nM in the test with Factor XIIa (FXIIa).

B17: 620I-X0136-F11 (bispecific antibody)
heavy: not shown
light: DIQMTQSPSTLSASVGDRVTITCRASQSISSWLAWYQQKPGKAPKLLIYKASTLESGVPSRFSGSGSGTEFTLTISSLQPDDFATYYCQQYNTYWTFGQGTKVEIKRTVAAPSVFIFPPSDEQLKSGTASVVCLLNNFYPREAKVQWKVDNALQSGNSQESVTEQDSKDSTYSLSSTLTLSKADYEKHKVYACEVTHQGLSSPVTKSFNRGEC
notes: also called 620I-X136-F11
With B17, the values for the Ki with plasma kallikrein (pKal) and in the test with Factor XIIa (FXIIa) were 0.201 nM and 0.235 nM, respectively.

B18: 620I-X0136-D12 (bispecific antibody)
heavy: not shown
light: DIQMTQSPSTLSASVGDRVTITCRASQSISSWLAWYQQKPGKAPKLLIYKASTLESGVPSRFSGSGSGTEFTLTISSLQPDDFATYYCQQYNTYWTFGQGTKVEIKRTVAAPSVFIFPPSDEQLKSGTASVVCLLNNFYPREAKVQWKVDNALQSGNSQESVTEQDSKDSTYSLSSTLTLSKADYEKHKVYACEVTHQGLSSPVTKSFNRGEC
notes: also called 620I-X136-D12
With B18, the Ki amounted to 0.179 nM in the test with plasma kallikrein (pKal) and 0.063 nM with Factor XIIa (FXIIa).
